Results on one substance are retold here after patent US20260055150A1, “GRAIL-1 PEPTIDE PRODUCTS AND METHODS” (REGENTS OF THE UNIVERSITY OF MICHIGAN, priority 2022, published 2026).

For the assay, the target named is T1, claudin-1 (Homo sapiens, UniProt O95832).
T1 construct: endogenous in cells; host or cells: colonic PDO implanted in mouse rectum
T1 sequence (O95832 1-211): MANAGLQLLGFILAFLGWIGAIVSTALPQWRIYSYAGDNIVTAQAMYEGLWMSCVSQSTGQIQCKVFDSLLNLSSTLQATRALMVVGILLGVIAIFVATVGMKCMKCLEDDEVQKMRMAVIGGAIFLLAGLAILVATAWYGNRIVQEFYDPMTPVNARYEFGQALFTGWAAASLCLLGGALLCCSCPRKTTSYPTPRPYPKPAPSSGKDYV
As to the kind of experiment: In vivo fluorescence imaging with RTS*-Cy5.5. Further details: species or system mouse. The conditions noted are these: after intravenous administration. Here is the method:
(A) Photo of is shown of a flexible fiber-coupled side-view confocal endomicroscope. […] Confocal images show claudin-1 expression from (D) dysplasia and (E) normal colonic mucosa with subcellular resolution. Images were collected ˜1 hour post-injection of RTS*-Cy5.5. Crypt structures and individual cells can be identified. Key: crypt (arrow), tight junction (arrowhead), lumen (I), colonocyte (c), goblet cell (g), lamina propria (lp).
This instrument has a diameter of 4.2 mm, which is small enough to perform repetitive in vivo imaging in mouse colon. The focusing optics provide a spatial resolution of 1.2 μm. A rigid wide-field endoscope was used first to collect white light (WL) and NIR fluorescence (FL) images to identify the approximate location of the implanted PDOs. Landmarks defined by the clockwise location of and distance from the anus to the distal tip of the endoscope were used to approximately locate the implanted PDOs for collection of confocal images. Tumor size and volume were estimated using a calibrated gauge passed through the instrument channel of the rigid endoscope. […] Differences in the spatial pattern of target expression between dysplasia and surrounding normal mucosa for colonic PDOs can be seen (FIG. 18D,E).

Turning to “RTS*-Cy5.5: Cy5.5-labeled peptide RTSPSSR, specific for claudin-1”, the “fluorescence intensity from implanted colonic PDO” value was “strong intensity”.
